From US20080287363A1 (LABORATOIRES SERONO, published 2008) come the findings set out here.

The target in this test is recombinant Δ6 evasin-4 (truncated, N-terminally 6His tagged evasin-4, amino acids 24-127), purified (Rhipicephalus sanguineus). As to the kind of experiment: SPR (Biacore 3000), Δ6 evasin-4 immobilized on CM4 chip, chemokine injected. In general terms: Surface plasmon resonance follows binding to a sensor surface in real time, without labels.

B1: XCL1/lymphotactin (ligand)
chain: VGSEVSDKRTCVSLTTQRLPVSRIKTYTITEGSLRAVIFITKRGLKVCADPQATWVRDVVRSMDRKSNTRNNMIQTKPTGTQQSTNTAVTLTG
As to B1, the binding result was “no binding (tested: 0.1 µg/ml)”.

B2: CCL13/MCP-4 (ligand)
chain: not shown
For B2, the binding result is listed as “no binding (tested: 0.1 µg/ml)”.
